Source: article PMC8336894 (Genes & Development, 2021)

Biological target: T1, CRY1 (human (endogenous in HEK293), UniProt Q16526 1-586)
T1 sequence (looked up): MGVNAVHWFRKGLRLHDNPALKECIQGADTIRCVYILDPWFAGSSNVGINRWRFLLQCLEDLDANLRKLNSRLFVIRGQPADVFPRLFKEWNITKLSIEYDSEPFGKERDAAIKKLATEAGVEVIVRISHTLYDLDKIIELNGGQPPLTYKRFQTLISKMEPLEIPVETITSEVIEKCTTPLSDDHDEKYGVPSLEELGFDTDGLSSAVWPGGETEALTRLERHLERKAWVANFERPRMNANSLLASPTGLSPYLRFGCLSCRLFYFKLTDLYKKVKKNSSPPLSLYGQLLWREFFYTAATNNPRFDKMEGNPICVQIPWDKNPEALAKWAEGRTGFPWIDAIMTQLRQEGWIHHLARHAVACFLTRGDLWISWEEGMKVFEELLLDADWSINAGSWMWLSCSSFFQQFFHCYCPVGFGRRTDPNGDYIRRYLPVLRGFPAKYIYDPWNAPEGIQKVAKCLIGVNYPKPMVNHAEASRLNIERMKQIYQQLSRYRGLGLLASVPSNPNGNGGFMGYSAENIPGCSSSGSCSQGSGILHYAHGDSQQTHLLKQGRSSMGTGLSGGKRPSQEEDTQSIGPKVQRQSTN
Experiment: co-IP

B1: BMAL1-luciferase fusion protein (natural protein)
chain: not shown
  fold luciferase activity in the precipitate over the IgG control: ~3 fold
